In patent US20240287172A1 (SCIRHOM, published 2024):
Numbering of substitutions follows the chain as printed.

T1: hiR2-FL-D569E-T7 (human, UniProt Q6PJF5 1-856)
T1 sequence: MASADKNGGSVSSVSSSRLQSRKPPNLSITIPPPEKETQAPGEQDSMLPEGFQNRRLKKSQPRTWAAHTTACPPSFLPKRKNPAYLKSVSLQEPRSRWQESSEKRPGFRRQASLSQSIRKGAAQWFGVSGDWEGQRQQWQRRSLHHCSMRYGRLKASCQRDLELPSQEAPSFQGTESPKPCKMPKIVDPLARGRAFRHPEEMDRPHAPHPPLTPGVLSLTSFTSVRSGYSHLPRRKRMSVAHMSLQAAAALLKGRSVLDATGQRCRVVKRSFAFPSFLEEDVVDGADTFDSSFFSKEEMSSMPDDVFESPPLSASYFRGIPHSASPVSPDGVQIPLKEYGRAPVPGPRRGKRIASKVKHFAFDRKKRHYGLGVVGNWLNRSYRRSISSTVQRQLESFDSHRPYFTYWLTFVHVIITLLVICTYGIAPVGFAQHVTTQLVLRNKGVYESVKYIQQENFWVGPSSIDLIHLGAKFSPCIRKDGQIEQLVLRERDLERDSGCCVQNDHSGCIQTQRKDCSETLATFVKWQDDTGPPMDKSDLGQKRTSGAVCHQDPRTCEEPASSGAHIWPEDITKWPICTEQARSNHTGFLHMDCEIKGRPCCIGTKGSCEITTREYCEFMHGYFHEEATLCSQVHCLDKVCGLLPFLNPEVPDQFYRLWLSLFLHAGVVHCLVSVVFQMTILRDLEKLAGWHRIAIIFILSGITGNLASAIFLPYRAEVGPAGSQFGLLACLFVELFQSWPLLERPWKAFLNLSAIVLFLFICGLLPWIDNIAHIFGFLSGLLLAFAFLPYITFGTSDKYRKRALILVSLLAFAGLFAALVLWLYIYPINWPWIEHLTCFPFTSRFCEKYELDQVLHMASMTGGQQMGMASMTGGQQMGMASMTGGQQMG

B1: antibody 48 (antibody, V domains shown)
VH: QVQLQQSGTELVRPGTSVKVSCKASGYAFTNYLIEWVKQRPGQGLEWIGVINPGSGFTKYNEKFKGKATLTADKSSSTVYMHLSSLTSEDSAVYFCARGLYRAMDYWGQGTSVTVSS
VL: DIQMTQSPASQSASLGESVTITCLASQTIATWLAWYQQKPGKSPQLLIYGATTLADGVPSRFSGGGSGTKFSFKISSLQAEDFVSYYCQQLYSTPYTFGGGTKLEIK
notes: mouse IgG, kappa light chain; also called clone #48; purified antibody 48
B2: antibody 50 (antibody, V domains shown)
VH: B1 VH with T9A, T16A, T30S, V79A, H82Q
VL: B1 VL with A30G, G50A, T52A, T53S, S85N, L91I
notes: mouse IgG, kappa light chain; also called clone #50; purified antibody 50

Target: T1, hiR2-FL-D569E-T7
Assay: FACS, MEF-DKO cells, 3 µg/ml
How it was run: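 MEF-DKO cells expressing T7-tagged full-length hiR2 point mutants were stained on ice for 1 h with purified antibodies at 3 μg/ml in FACS buffer. Detection used PE-conjugated goat anti-mouse IgG F(ab′)2 (1:100, 1 h on ice), read by flow cytometry; buffer-only wells served as controls.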

Row | Binder | loss of binding vs wild type [%]
1 | B1 | ≥ 30
2 | B2 | ≥ 30
